Reference: paper PMC4634852

Target: Spindle-F (Spn-F) (UniProt Q9V9Y9)
Assay: anti-FLAG co-IP of differently tagged Spn-F
Settings: reference: wild-type Spn-F with Ik2; sites S53,S85,S172,S202,S264,S270,S325,S349

## Spindle-F (Spn-F) (from UniProt Q9V9Y9) SpnF-8A with Ik2
  binding against the reference: stronger
